Here are results for 13 substances from patent US9260500B2, “Peptide and use thereof” (Takeda Pharmaceutical Company Limited, priority 2009, dated 2016).

Non-standard residues stand in square brackets, D forms with d. No end group written: not given here. *: point of attachment. Dap(CONH2) = NC(=O)NC[C@H](N)C(=O)O; Hyp = O=C(O)[C@@H]1C[C@@H](O)CN1; tBuAla = CC(C)(C)C[C@H](N)C(=O)O; 4Pal = N[C@@H](Cc1ccncc1)C(=O)O; Cha = N[C@@H](CC1CCCCC1)C(=O)O; d(αMeP) = C[C@]1(C(=O)O)CCCN1; dPip = O=C(O)[C@H]1CCCCN1; Isobutyryl = CC(C)C(=O)*; NMeA = CN[C@@H](C)C(=O)O; Abu = CC[C@H](N)C(=O)O; Nar = not defined here; Aib = CC(C)(N)C(=O)O; GABA = NCCCC(=O)O; Sar = CNCC(=O)O

Experiment [1] has as its target T1, human Y2 receptor (Homo sapiens, UniProt P49146).
T1 construct: expressed in transfected cells; membrane fraction
T1 sequence (P49146 1-381): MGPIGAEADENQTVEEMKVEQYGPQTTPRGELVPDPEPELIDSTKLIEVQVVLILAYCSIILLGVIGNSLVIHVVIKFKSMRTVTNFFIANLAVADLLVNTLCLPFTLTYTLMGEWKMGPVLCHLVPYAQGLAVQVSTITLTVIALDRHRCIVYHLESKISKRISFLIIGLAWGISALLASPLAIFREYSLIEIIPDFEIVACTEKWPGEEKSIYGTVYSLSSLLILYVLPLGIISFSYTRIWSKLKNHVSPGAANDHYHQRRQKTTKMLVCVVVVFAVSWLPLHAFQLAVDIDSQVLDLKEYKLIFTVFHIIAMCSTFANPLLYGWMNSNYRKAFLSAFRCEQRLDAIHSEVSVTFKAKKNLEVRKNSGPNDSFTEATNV
The experiment can be described thus: Receptor Binding Assay (RBA) for Human Y2, [125I]-PYY displacement on hY2R/CHO membrane fraction. The note with it: IC50 of test compound/IC50 of PYY(3-36) (PYY(3-36) taken as 1). Summed up:
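Read-out is [125I]-PYY displacement from membranes of CHO/dhfr− cells stably transfected with human Y2R. Membranes were obtained by disrupting cells in a buffer of 10 mM NaHCO3, 5 mM EDTA and protease inhibitors.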

Experiment [2] deals with T1, human Y2 receptor. Nature of the experiment: Human Y2 Receptor G Protein Binding Assay (GBA), [35S]GTPγS. In kind it is biochemical. The note with it: EC50 of test compound/EC50 of PYY(3-36) (PYY3-36 taken as 1), hY2R/CHO membrane fraction. Summed up: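 Agonism measured as [35S]GTPγS binding, read by GF/C filtration and scintillation counting after 120 min at room temperature, using human Y2 membranes at 1 μg protein/mL in pH 7.4 Tris/MgCl2/NaCl/GDP buffer. Compound serially diluted 100 μM–1 nM; EC50 normalized to PYY(3-36) (ratio = compound/PYY).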

With “Ac-[D-Pro24, Alb26, Cha27,28,36, Aib31]-PYY(23-36) (Ac-S[dP]R[Dap(CONH2)][Cha][Cha]NL[Aib]TRQR[Cha]-NH2; SMILES CC(=O)N[C@@H](CO)C(=O)N1CCC[C@@H]1C(=O)N[C@@H](CCCNC(=N)N)C(=O)N[C@@H](CNC(N)=O)C(=O)N[C@@H](CC1CCCCC1)C(=O)N[C@@H](CC1CCCCC1)C(=O)N[C@@H](CC(N)=O)C(=O)N[C@@H](CC(C)C)C(=O)NC(C)(C)C(=O)N[C@H](C(=O)N[C@@H](CCCNC(=N)N)C(=O)N[C@@H](CCC(N)=O)C(=O)N[C@@H](CCCNC(=N)N)C(=O)N[C@@H](CC1CCCCC1)C(N)=O)[C@@H](C)O) [compound No. 149]”, the “RBA IC50 Ratio” value with human Y2 receptor [1] is listed as 12. Also, the “GBA EC50 Ratio” value in the experiment with human Y2 receptor [2] is 2.2.
For the substance “Ac-[D-Ser23, Sar24, Cha27,28,36, Aib31]-PYY(23-36) (Ac-[dS][Sar]RH[Cha][Cha]NL[Aib]TRQR[Cha]-NH2; SMILES CC(=O)N[C@H](CO)C(=O)N(C)CC(=O)N[C@@H](CCCNC(=N)N)C(=O)N[C@@H](Cc1c[nH]cn1)C(=O)N[C@@H](CC1CCCCC1)C(=O)N[C@@H](CC1CCCCC1)C(=O)N[C@@H](CC(N)=O)C(=O)N[C@@H](CC(C)C)C(=O)NC(C)(C)C(=O)N[C@H](C(=O)N[C@@H](CCCNC(=N)N)C(=O)N[C@@H](CCC(N)=O)C(=O)N[C@@H](CCCNC(=N)N)C(=O)N[C@@H](CC1CCCCC1)C(N)=O)[C@@H](C)O) [compound No. 111]”, the “RBA IC50 Ratio” value in the experiment with human Y2 receptor [1] is 6.6. In addition, the “GBA EC50 Ratio” value in the experiment with human Y2 receptor [2] is 5.3.
Taken in the same sequence, the figures for “Ac-[D-αMePro24, Cha27,28,36, Aib31]-PYY(23-36) (Ac-S[d(αMeP)]RH[Cha][Cha]NL[Aib]TRQR[Cha]-NH2; SMILES CC(=O)N[C@@H](CO)C(=O)N1CCC[C@]1(C)C(=O)N[C@@H](CCCNC(=N)N)C(=O)N[C@@H](Cc1c[nH]cn1)C(=O)N[C@@H](CC1CCCCC1)C(=O)N[C@@H](CC1CCCCC1)C(=O)N[C@@H](CC(N)=O)C(=O)N[C@@H](CC(C)C)C(=O)NC(C)(C)C(=O)N[C@H](C(=O)N[C@@H](CCCNC(=N)N)C(=O)N[C@@H](CCC(N)=O)C(=O)N[C@@H](CCCNC(=N)N)C(=O)N[C@@H](CC1CCCCC1)C(N)=O)[C@@H](C)O) [compound No. 155]” were 4.5 and 2.6.
Taken in the same sequence, the figures for “[MeAla22, D-Pro24, Cha27,28,36, Aib31]-PYY(22-36) ([NMeA]S[dP]RH[Cha][Cha]NL[Aib]TRQR[Cha]-NH2; N-terminus assumed; SMILES CN[C@@H](C)C(=O)N[C@@H](CO)C(=O)N1CCC[C@@H]1C(=O)N[C@@H](CCCNC(=N)N)C(=O)N[C@@H](Cc1c[nH]cn1)C(=O)N[C@@H](CC1CCCCC1)C(=O)N[C@@H](CC1CCCCC1)C(=O)N[C@@H](CC(N)=O)C(=O)N[C@@H](CC(C)C)C(=O)NC(C)(C)C(=O)N[C@H](C(=O)N[C@@H](CCCNC(=N)N)C(=O)N[C@@H](CCC(N)=O)C(=O)N[C@@H](CCCNC(=N)N)C(=O)N[C@@H](CC1CCCCC1)C(N)=O)[C@@H](C)O) [compound No. 123]” were 0.6 and 0.72.
As to “Ac-[D-Pro24, Pya(4)26, Cha27,36, Aib28,31, Arg30]-PYY(23-36) (Ac-S[dP]R[4Pal][Cha][Aib]NR[Aib]TRQR[Cha]-NH2; SMILES CC(=O)N[C@@H](CO)C(=O)N1CCC[C@@H]1C(=O)N[C@@H](CCCNC(=N)N)C(=O)N[C@@H](Cc1ccncc1)C(=O)N[C@@H](CC1CCCCC1)C(=O)NC(C)(C)C(=O)N[C@@H](CC(N)=O)C(=O)N[C@@H](CCCNC(=N)N)C(=O)NC(C)(C)C(=O)N[C@H](C(=O)N[C@@H](CCCNC(=N)N)C(=O)N[C@@H](CCC(N)=O)C(=O)N[C@@H](CCCNC(=N)N)C(=O)N[C@@H](CC1CCCCC1)C(N)=O)[C@@H](C)O) [compound No. 263]”, the “RBA IC50 Ratio” value with human Y2 receptor [1] is given as 1.1. Besides, the “GBA EC50 Ratio” value with human Y2 receptor [2] stood at 1.8.
On to “Ac-[D-Pro24, Nar25, Pya(4)26, Cha27,36, Aib28,31, Lys30]-PYY(23-36) (Ac-S[dP][Nar][4Pal][Cha][Aib]NK[Aib]TRQR[Cha]-NH2; reading uncertain) [compound No. 290]”, for which, in the experiment with human Y2 receptor [1], the “RBA IC50 Ratio” value is given as 1.1. Besides, the “GBA EC50 Ratio” value with human Y2 receptor [2] stood at 1.8.
Taken in the same sequence, the figures for “Ac-[Glu23, D-Pic(2)24, Cha27,28,36, Aib31]-PYY(23-36) (Ac-E[dPip]RH[Cha][Cha]NL[Aib]TRQR[Cha]-NH2; SMILES CC(=O)N[C@@H](CCC(=O)O)C(=O)N1CCCC[C@@H]1C(=O)N[C@@H](CCCNC(=N)N)C(=O)N[C@@H](Cc1c[nH]cn1)C(=O)N[C@@H](CC1CCCCC1)C(=O)N[C@@H](CC1CCCCC1)C(=O)N[C@@H](CC(N)=O)C(=O)N[C@@H](CC(C)C)C(=O)NC(C)(C)C(=O)N[C@H](C(=O)N[C@@H](CCCNC(=N)N)C(=O)N[C@@H](CCC(N)=O)C(=O)N[C@@H](CCCNC(=N)N)C(=O)N[C@@H](CC1CCCCC1)C(N)=O)[C@@H](C)O) [compound No. 120]” were 17 and 10.
With “Ac-[Hyp23, D-Pro24, Cha27,28,36, Aib31]-PYY(23-36) (Ac-[Hyp][dP]RH[Cha][Cha]NL[Aib]TRQR[Cha]-NH2; SMILES CC(=O)N1C[C@H](O)C[C@H]1C(=O)N1CCC[C@@H]1C(=O)N[C@@H](CCCNC(=N)N)C(=O)N[C@@H](Cc1c[nH]cn1)C(=O)N[C@@H](CC1CCCCC1)C(=O)N[C@@H](CC1CCCCC1)C(=O)N[C@@H](CC(N)=O)C(=O)N[C@@H](CC(C)C)C(=O)NC(C)(C)C(=O)N[C@H](C(=O)N[C@@H](CCCNC(=N)N)C(=O)N[C@@H](CCC(N)=O)C(=O)N[C@@H](CCCNC(=N)N)C(=O)N[C@@H](CC1CCCCC1)C(N)=O)[C@@H](C)O) [compound No. 126]”, the “RBA IC50 Ratio” value with human Y2 receptor [1] was found to be 7.3. The “GBA EC50 Ratio” value with human Y2 receptor [2] amounted to 5.0.
In the same order, the values of “Ac-[GABA24, Cha27,28,36, Aib31]-PYY(23-36) (Ac-S[GABA]RH[Cha][Cha]NL[Aib]TRQR[Cha]-NH2; SMILES CC(=O)N[C@@H](CO)C(=O)NCCCC(=O)N[C@@H](CCCNC(=N)N)C(=O)N[C@@H](Cc1c[nH]cn1)C(=O)N[C@@H](CC1CCCCC1)C(=O)N[C@@H](CC1CCCCC1)C(=O)N[C@@H](CC(N)=O)C(=O)N[C@@H](CC(C)C)C(=O)NC(C)(C)C(=O)N[C@H](C(=O)N[C@@H](CCCNC(=N)N)C(=O)N[C@@H](CCC(N)=O)C(=O)N[C@@H](CCCNC(=N)N)C(=O)N[C@@H](CC1CCCCC1)C(N)=O)[C@@H](C)O) [compound No. 156]” are 5.8 and 3.0.
As to “Ac-[Leu22, D-Pro24, Pya(4)26, Cha27,36, Aib28,31, Lys30]-PYY(22-36) (Ac-LS[dP]R[4Pal][Cha][Aib]NK[Aib]TRQR[Cha]-NH2; SMILES CC(=O)N[C@@H](CC(C)C)C(=O)N[C@@H](CO)C(=O)N1CCC[C@@H]1C(=O)N[C@@H](CCCNC(=N)N)C(=O)N[C@@H](Cc1ccncc1)C(=O)N[C@@H](CC1CCCCC1)C(=O)NC(C)(C)C(=O)N[C@@H](CC(N)=O)C(=O)N[C@@H](CCCCN)C(=O)NC(C)(C)C(=O)N[C@H](C(=O)N[C@@H](CCCNC(=N)N)C(=O)N[C@@H](CCC(N)=O)C(=O)N[C@@H](CCCNC(=N)N)C(=O)N[C@@H](CC1CCCCC1)C(N)=O)[C@@H](C)O) [compound No. 274]”, the “RBA IC50 Ratio” value with human Y2 receptor [1] is listed as 1.2. The “GBA EC50 Ratio” value with human Y2 receptor [2] is recorded as 1.0.
Taken in the same sequence, the figures for “Ac-[Ala26, Ile28,31, Arg(Me)35]-PYY(22-36) [compound No. 1]” were 50 and 13.
In the same order, the values of “Ac-[Lys22,30, D-Pro24, Pya(4)26, Cha27,36, Aib28,31]-PYY(22-36) (Ac-KS[dP]R[4Pal][Cha][Aib]NK[Aib]TRQR[Cha]-NH2; SMILES CC(=O)N[C@@H](CCCCN)C(=O)N[C@@H](CO)C(=O)N1CCC[C@@H]1C(=O)N[C@@H](CCCNC(=N)N)C(=O)N[C@@H](Cc1ccncc1)C(=O)N[C@@H](CC1CCCCC1)C(=O)NC(C)(C)C(=O)N[C@@H](CC(N)=O)C(=O)N[C@@H](CCCCN)C(=O)NC(C)(C)C(=O)N[C@H](C(=O)N[C@@H](CCCNC(=N)N)C(=O)N[C@@H](CCC(N)=O)C(=O)N[C@@H](CCCNC(=N)N)C(=O)N[C@@H](CC1CCCCC1)C(N)=O)[C@@H](C)O) [compound No. 272]” are 1.1 and 1.0.
Taken in the same sequence, the figures for “Isobutanoyl-[Abu26, Cha27,28,36, Leu(Me)30, Aib31]-PYY(25-36) (Isobutyryl-R[Abu][Cha][Cha]N[tBuAla][Aib]TRQR[Cha]-NH2; SMILES CC[C@H](NC(=O)[C@H](CCCNC(=N)N)NC(=O)C(C)C)C(=O)N[C@@H](CC1CCCCC1)C(=O)N[C@@H](CC1CCCCC1)C(=O)N[C@@H](CC(N)=O)C(=O)N[C@@H](CC(C)(C)C)C(=O)NC(C)(C)C(=O)N[C@H](C(=O)N[C@@H](CCCNC(=N)N)C(=O)N[C@@H](CCC(N)=O)C(=O)N[C@@H](CCCNC(=N)N)C(=O)N[C@@H](CC1CCCCC1)C(N)=O)[C@@H](C)O) [compound No. 81]” were 51 and 26.
